# The RNAGym collection of RNA variant scans (doi:10.1093/molbev/msab373)
# B1: Azoarcus group I ribozyme (parent)
# chain: GUGCCUUGCGCCGGGAAACCACGCAAGGGAUGGUGUCAAAUUCGGCGAAACCUAAGCGCCCGCCCGGGCGUAUGGCAACGCCGAGCCAAGCUUCGGCGCCUGCGCCGAUGAAGGUGUAGAGACUAGACGGCACCCACCUAAGGCAAACGCUAUGGUGAAGGCAUAGUCCAGGGAGUGGCGAAAGUCACACAAACCGG
# Variants of: B1
# Test: reverse-splicing fitness (ratio to wild type); higher = more active; in vitro selection; Mg2+ level not given
# How it was run: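 An in vitro group I ribozyme library with randomized positions was T7-transcribed and gel-purified. In triplicate, 10 pmol RNA in EPPS pH 7.5 was reacted with 50 pmoles of a 30-nt RNA substrate for 1 h at 37 °C across several added MgCl2 levels (1–48 mM), then stopped with EDTA. Products were reverse transcribed from a substrate-complementary primer, PCR-amplified and sequenced (HiSeq 4000). Fitness is a variant's read proportion after selection over that before, normalised to wild type.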
row,Variant,reverse-splicing fitness
1,GUGCCUUGCGCCGGGAAACCACGCAAGGGAUGGUGUCAAAUUCGGCGAAACCUAAGCGCCCGCCCGGGCGUAUGGCAACGCAGAGCCAAGCUUCGGCGCCUGCGCCGAUGGAGGUGUAGUGACUAGACGGCACCCACCUAAGGCGAACGUUAUGGUGAAGGCAUAGUCAAGGGAGAGGCGAAAGUCACACAAACCGG [C82A A111G A120U A145G C150U C169A U176A],0.00727
2,GUGCCUUGCGCCGGGAAACCACGCAAGGGAUGGUGUCAAAUUCGGCGAAACCUAAGCGCCCGCCCGGGCGUAUGGCAACGCAGAGCCAAGCUUCGGCGCCUGCGCCGAUGGAGGUGUAGUGACUAGACGGCACCCACCUAAGGCGAACGUUAUGGUGAAGGCAUAGUCAAGGGAGCGGCGAAAGUCACACAAACCGG [C82A A111G A120U A145G C150U C169A U176C],0.0045
3,GUGCCUUGCGCCGGGAAACCACGCAAGGGAUGGUGUCAAAUUCGGCGAAACCUAAGCGCCCGCCCGGGCGUAUGGCAACGCAGAGCCAAGCUUCGGCGCCUGCGCCGAUGGAGGUGUAGUGACUAGACGGCACCCACCUAAGGCGAACGGUAUGGUGAAGGCAUAGUCCAGGGAGAGGCGAAAGUCACACAAACCGG [C82A A111G A120U A145G C150G U176A],0.00592
4,GUGCCUUGCGCCGGGAAACCACGCAAGGGAUGGUGUCAAAUUCGGCGAAACCUAAGCGCCCGCCCGGGCGUAUGGCAACGCAGAGCCAAGCUUCGGCGCCUGCGCCGAUGGAGGUGUAGUGACUAGACGGCACCCACCUAAGGCGAACGGUAUGGUGAAGGCAUAGUCCAGGGAGGGGCGAAAGUCACACAAACCGG [C82A A111G A120U A145G C150G U176G],0.00403
5,GUGCCUUGCGCCGGGAAACCACGCAAGGGAUGGUGUCAAAUUCGGCGAAACCUAAGCGCCCGCCCGGGCGUAUGGCAACGCAGAGCCAAGCUUCGGCGCCUGCGCCGAUGGAGGUGUAGUGACUAGACGGCACCCACCUAAGGCGAACGGUAUGGUGAAGGCAUAGUCCAGGGAGCGGCGAAAGUCACACAAACCGG [C82A A111G A120U A145G C150G U176C],0.00835
6,GUGCCUUGCGCCGGGAAACCACGCAAGGGAUGGUGUCAAAUUCGGCGAAACCUAAGCGCCCGCCCGGGCGUAUGGCAACGCAGAGCCAAGCUUCGGCGCCUGCGCCGAUGGAGGUGUAGUGACUAGACGGCACCCACCUAAGGCGAACGGUAUGGUGAAGGCAUAGUCGAGGGAGAGGCGAAAGUCACACAAACCGG [C82A A111G A120U A145G C150G C169G U176A],0.00925
7,GUGCCUUGCGCCGGGAAACCACGCAAGGGAUGGUGUCAAAUUCGGCGAAACCUAAGCGCCCGCCCGGGCGUAUGGCAACGCAGAGCCAAGCUUCGGCGCCUGCGCCGAUGGAGGUGUAGUGACUAGACGGCACCCACCUAAGGCGAACGGUAUGGUGAAGGCAUAGUCGAGGGAGGGGCGAAAGUCACACAAACCGG [C82A A111G A120U A145G C150G C169G U176G],0.00316
8,GUGCCUUGCGCCGGGAAACCACGCAAGGGAUGGUGUCAAAUUCGGCGAAACCUAAGCGCCCGCCCGGGCGUAUGGCAACGCAGAGCCAAGCUUCGGCGCCUGCGCCGAUGGAGGUGUAGUGACUAGACGGCACCCACCUAAGGCGAACGGUAUGGUGAAGGCAUAGUCGAGGGAGCGGCGAAAGUCACACAAACCGG [C82A A111G A120U A145G C150G C169G U176C],0.00646
9,GUGCCUUGCGCCGGGAAACCACGCAAGGGAUGGUGUCAAAUUCGGCGAAACCUAAGCGCCCGCCCGGGCGUAUGGCAACGCAGAGCCAAGCUUCGGCGCCUGCGCCGAUGGAGGUGUAGUGACUAGACGGCACCCACCUAAGGCGAACGCUAUGGUGAAGGCAUAGUCAAGGGAGUGGCGAAAGUCACACAAACCGG [C82A A111G A120U A145G C169A],0.00307
10,GUGCCUUGCGCCGGGAAACCACGCAAGGGAUGGUGUCAAAUUCGGCGAAACCUAAGCGCCCGCCCGGGCGUAUGGCAACGCAGAGCCAAGCUUCGGCGCCUGCGCCGAUGGAGGUGUAGUGACUAGACGGCACCCACCUAAGGCGAACGUUAUGGUGAAGGCAUAGUCCAGGGAGUGGCGAAAGUCACACAAACCGG [C82A A111G A120U A145G C150U],0.0257
11,GUGCCUUGCGCCGGGAAACCACGCAAGGGAUGGUGUCAAAUUCGGCGAAACCUAAGCGCCCGCCCGGGCGUAUGGCAACGCAGAGCCAAGCUUCGGCGCCUGCGCCGAUGGAGGUGUAGUGACUAGACGGCACCCACCUAAGGCGAACGUUAUGGUGAAGGCAUAGUCCAGGGAGGGGCGAAAGUCACACAAACCGG [C82A A111G A120U A145G C150U U176G],0.00409
12,GUGCCUUGCGCCGGGAAACCACGCAAGGGAUGGUGUCAAAUUCGGCGAAACCUAAGCGCCCGCCCGGGCGUAUGGCAACGCAGAGCCAAGCUUCGGCGCCUGCGCCGAUGGAGGUGUAGUGACUAGACGGCACCCACCUAAGGCGAACGUUAUGGUGAAGGCAUAGUCCAGGGAGAGGCGAAAGUCACACAAACCGG [C82A A111G A120U A145G C150U U176A],0.0096
13,GUGCCUUGCGCCGGGAAACCACGCAAGGGAUGGUGUCAAAUUCGGCGAAACCUAAGCGCCCGCCCGGGCGUAUGGCAACGCAGAGCCAAGCUUCGGCGCCUGCGCCGAUGGAGGUGUAGUGACUAGACGGCACCCACCUAAGGCGAACGUUAUGGUGAAGGCAUAGUCCAGGGAGCGGCGAAAGUCACACAAACCGG [C82A A111G A120U A145G C150U U176C],0.0133
14,GUGCCUUGCGCCGGGAAACCACGCAAGGGAUGGUGUCAAAUUCGGCGAAACCUAAGCGCCCGCCCGGGCGUAUGGCAACGCAGAGCCAAGCUUCGGCGCCUGCGCCGAUGGAGGUGUAGUGACUAGACGGCACCCACCUAAGGCGAACGGUAUGGUGAAGGCAUAGUCAAGGGAGCGGCGAAAGUCACACAAACCGG [C82A A111G A120U A145G C150G C169A U176C],0.00953
15,GUGCCUUGCGCCGGGAAACCACGCAAGGGAUGGUGUCAAAUUCGGCGAAACCUAAGCGCCCGCCCGGGCGUAUGGCAACGCAGAGCCAAGCUUCGGCGCCUGCGCCGAUGGAGGUGUAGUGACUAGACGGCACCCACCUAAGGCGAACGGUAUGGUGAAGGCAUAGUCAAGGGAGGGGCGAAAGUCACACAAACCGG [C82A A111G A120U A145G C150G C169A U176G],0.00369
